Data set [1] concerns anti-GD3 antibody and anti-LOSGD3 antibody. As to the kind of experiment: Time course of serum anti-GD3 and anti-LOSGD3 antibody (ELISA) in immunized rats. As to conditions: peptide 1000 nmol/kg i.p. daily, from weeks 8, 11 and 14. Type of data set: in vivo, Lewis rats. How it is done: (§1) Antiganglioside antibody activity was evaluated for GM1, GM2, GD1a, GD1b, GT1b, GQ1b, GD3, and LOSGD3 by conventional ELISA method (Usuki et al., 2005. J Neurol Sci 232: 37-44). […] Before the ELISA plate assay, each well was treated with 1% BSA/PBS solution. […] After incubation, the reaction mixture was passed through a 0.22-μm syringe filter (Millipore Corp., Bedford, Mass.). Subsequently, 100 μl of the mixture was added to each well and incubated for 1 hr at room temperature. To each of the wells, a secondary antibody (horseradish peroxidase-conjugated anti-mouse IgG, 1:5,000 dilution in 1% BSA/PBS solution) was added and incubated for 1 hr at room temperature. Finally, the bound secondary antibody was visualized by addition of a color-generating reagent (OPD Peroxidase Substrate). The absorbance was measured at 492 nm with a microplate spectrophotometer (Bio-Rad, Hemel Hempstead, United Kingdom). The nomenclature of gangliosides is based on that of Svennerholm (Svennerholm, 1964. J Lipid Res 5: 145-155).
Anti-ganglioside antibody activity was evaluated for GM1, GM2, GD1a, GD1b, GT1b, GQ1b, GD3, and LOSGD3 by conventional ELISA as previously described (Usuki et al., 2005. J. Neurol. Sci. 232:37-44). To measure half-maximal inhibitory concentrations (IC50s) of GD3-like peptides for binding of GD3 to mAb R24, each well of the ELISA plate (Immunlon 1B, Lab System, Franklin, Mass., USA) was coated with 0.1 μg of GD3, and prior to ELISA assay was treated by 1% BSA/PBS solution. The purified mAb R24 IgG (10 μg/mL by 1% BSA/PBS solution) was incubated with various concentrations of GD3-like peptides (PGD3-1, PGD3-2, PGD3-3, PGD3-4, PGD3-5, and PGD3-6) for 30 min. After incubation, the reaction mixture was passed through a 0.22-μm syringe filter (Millipore Corp., Bedford, Mass., USA), and 100 μL of the mixture was added to each well and incubated for 1 h at room temperature. […] The absorbance was measured at 492 nm with a microplate spectrophotometer (BioRad, Hemel Hempstead, UK).
On the technique in general: An ELISA detects its analyte on a solid surface through an enzyme-linked reagent.

Data set [2] deals with LOSGD3-sensitized rats. As to the kind of experiment: Rotarod motor test. To be noted: LOSGD3/peptide group vs LOSGD3 treatment group, week 17. For orientation: The rotarod test checks motor coordination on a turning rod.
Procedure: Twelve-week-old female Lewis rats weighing 200-250 g were used. One hundred micrograms LOSGD3 was dissolved in 50 mM PBS buffer with a vehicle of 0.05 ml keyhole limpet hemocyanin (KLH; 2 mg/ml) and emulsified with an equal volume of complete Freund's adjuvant (CFA). Rats were given a single subcutaneous injection of 0.1 ml inoculum (or vehicle) into the shoulders and the footpads of the hind limbs. In addition, booster injections were administered similarly to injections in LOSGD3 (or vehicle)-treated animals at 2-week intervals with 100 μg LOSGD3 (or no additive) and 2 mg/ml KLH in PBS emulsified with an equal volume of incomplete Freund's adjuvant (ICFA) 6 weeks thereafter. Sixteen experimental animals were divided into four groups (n=4 each): 1) LOSGD3, 2) LOSGD3/BEC2, 3) vehicle, and 4) vehicle/BEC2. The remaining animals were included as the untreated control group (n=4). As shown in the third and fourth stepladders of FIG. 2, BEC2 (5 mg kg^−1) was administered to rats once per week from 8 to 15 weeks.
A rat was placed on a rotating roller (4 cm in diameter), and the time for which the rat remained on the roller was measured. The test included eight trials; each trial was performed at an interval of 10 min; four trials were performed. An additional four trials were conducted after 24 hr. When the rat could stay on the rotating rod at a constant speed of 5 rpm for a cumulative duration of at least 2 sec, the rotation speed was increased by 0.2 rpm/sec.
Twelve-week-old female Lewis rats, weighing 200-220 g each, were used. One hundred micrograms of LOSGD3 was dissolved in 50 mM PBS buffer as vehicle, and with 0.05 mL of keyhole limpet hemocyanin (2 mg/mL) emulsified with an equal volume of complete Freund's adjuvant. A single subcutaneous injection of 0.1 mL of inoculum (or vehicle) was made into the rats' shoulders and hind limb footpads. […]
Data set [3] relates to mAb R24. Briefly: Competitive inhibition ELISA: binding of mAb R24 to GD3-coated plate. How it is done:
Subsequently, an aliquot (100 μl) was added to each well, and each well of the ELISA plate was coated with 0.1 μg GD3. The remaining binding activity of mAb R24 was determined by ELISA. Values are means±SD, n=6 individual experiments. […] The experiment at each dose was performed on three rats, and values are means±SD.
as §1
FIG. 8 illustrates the effect of GD3-like peptides on binding of R24 mAb to GD3 by ELISA. Each of the GD3-peptide mimics in solution (PGD3-1, PGD3-2, PGD3-3, PGD3-4, PGD3-5, or PGD3-6) was incubated with R24 mAb for 30 min at room temperature at various concentrations as indicated in the horizontal axis. An aliquot of the mixtures (100 μL), was added to each well of an ELISA plate coated with 0.1 μg of GD3. The remaining binding activity of R24 mAb was measured by ELISA. Values are mean±SEM, n=6 individual experiments.
Anti-ganglioside antibody activity was evaluated for GM1, GM2, GD1a, GD1b, GT1b, GQ1b, GD3, and LOSGD3 by conventional ELISA as previously described (Usuki et al., 2005. J. Neurol. Sci. 232:37-44). To measure half-maximal inhibitory concentrations (IC50s) of GD3-like peptides for binding of GD3 to mAb R24, each well of the ELISA plate (Immunlon 1B, Lab System, Franklin, Mass., USA) was coated with 0.1 μg of GD3, and prior to ELISA assay was treated by 1% BSA/PBS solution. The purified mAb R24 IgG (10 μg/mL by 1% BSA/PBS solution) was incubated with various concentrations of GD3-like peptides (PGD3-1, PGD3-2, PGD3-3, PGD3-4, PGD3-5, and PGD3-6) for 30 min. After incubation, the reaction mixture was passed through a 0.22-μm syringe filter (Millipore Corp., Bedford, Mass., USA), and 100 μL of the mixture was added to each well and incubated for 1 h at room temperature. A secondary antibody (horseradish peroxidase-conjugated anti-mouse IgG, 1:5000 dilution in 1% BSA/PBS solution) was applied, incubated for 1 h at room temperature, and visualized by addition of a color-generating reagent (OPD Peroxidase Substrate). The absorbance was measured at 492 nm with a microplate spectrophotometer (BioRad, Hemel Hempstead, UK).

The test system of data set [4] is LOSGD3-sensitized rats. As to the kind of experiment: Nerve conduction velocity (NCV) in rat tail nerve. As to conditions: LOSGD3/peptide-treated groups, week 16.
Procedure: Twelve-week-old female Lewis rats, weighing 200-220 g each, were used. One hundred micrograms of LOSGD3 was dissolved in 50 mM PBS buffer as vehicle, and with 0.05 mL of keyhole limpet hemocyanin (2 mg/mL) emulsified with an equal volume of complete Freund's adjuvant. A single subcutaneous injection of 0.1 mL of inoculum (or vehicle) was made into the rats' shoulders and hind limb footpads. Additional booster injections were administered similarly to LOSGD3- (or vehicle-) treated animals at 2-week intervals with 100 μg of LOSGD3 (or no additive) and 2 mg/mL of keyhole limpet hemocyanin in PBS emulsified with an equal volume of incomplete Freund's adjuvant after 6 weeks. Forty-four experimental animals were grouped into 10 treatment paradigms (n=4 each): (i) LOSGD3, (ii) LOSGD3/PGD3-3, (iii) LOSGD3/PGD3-4, (iv) LOSGD3/PGD3-5, (v) LOSGD3/PGD3-6, (vi) vehicle, (vii) vehicle/PGD3-3, (viii) vehicle/PGD3-4, (ix) vehicle/PGD3-5, and (x) LOSGD3/PGD3-6. The remaining four animals were the untreated control group (n=4). […]
NCVs (m/s) were measured in the rat tail nerve using a Nicolet VikingQuest EMG machine (NeuroCare Group, Madison, Wis., USA) according to the method described previously (Usuki et al., 2006. J. Neurosci. Res. 83:274-284).
The nature of data set [5]: Pharmacokinetic study of bPGD3-4 after i.p. single dose (streptavidin-coated ELISA of plasma). To be noted: for tmax: normal Lewis rats.
Procedure: Briefly, the plasma samples from the single-dose administration of bPGD3-4 were applied to the streptavidin-coated ELISA plates at serial double dilutions in 1% bovine serum albumin/phosphate buffered-saline (BSA/PBS) solution. […] After washing with 1% BSA/PBS buffer, each well was treated with an anti-mouse IgG horseradish peroxidase-conjugated antibody (Jackson ImmunoResearch Lab, West Grove, Pa., USA). This secondary antibody was pre-treated with rat IgG to eliminate contamination from any anti-rat IgG binding activity. Finally, the bound secondary antibody was visualized by a color-generating reagent (OPD Peroxidase Substrate in PBS; Sigma, St Louis, Mo., USA). Half-saturation absorbance values for plasma samples were estimated by serial plasma dilution curves of ELISA. The absorbances were then converted into values of plasma concentration using a standard serial dilution curve of rat serum containing authentic bPGD3-4.
A Micro-Renathane polyurethane cannula, 0.84 mm o.d.×0.36 mm i.d., (Braintree Scientific Inc., Braintree, Mass.) was inserted before dosing into the femoral vein of a female Lewis rat (n=9; body weight=200±20 g). […] Blood samples were centrifuged at room temperature and the plasma harvested. The plasma samples were stored at −60° C. to −80° C. until analyzed by a streptavidin-coated ELISA plate for determining the total concentration of bPGD3-4.
The following parameters were calculated: maximum-, minimum-, and average-observed plasma concentration (Cmax, Cmin, and Cav), areas under the plasma concentration-time curve from zero to infinite time (AUC) plasma clearance (CL), distribution half-life (t1/2α), and elimination half-life (t1/2β).
The mark [6] stands for this setting: as restated in Example 12, read-out: IC50 values for the active peptides.
Setting [7] is: simulated, 1,000 nmol kg^−1 i.p. at 24-hourly intervals for 7 days.
Where [8] appears, read: i.p. single dose 100.0 nmol kg^−1, mean (SD).
The mark [9] stands for this setting: i.p. single dose 500.0 nmol kg^−1, mean (SD).
Setting [10] is: i.p. single dose 1000.0 nmol kg^−1, mean (SD).

pIC50: −log10 of the molar value. Like-named read-outs stand apart in the source and are kept apart here. No end group written: not given here.

Take ACTPYAMLPGCK [PGD3-5]: in data set [1], the “effect on serum anti-GD3 / anti-LOSGD3 antibody level” value is on record as “effective in suppressing serum anti-GD3 antibody activity”. Further, the “rotarod retention time / motor performance” value in data set [2] is “did not show any statistically significant differences”. The “inhibitory activity on GD3 reactivity to mAb R24” value (from here on “inhibitory activity”) in data set [3] (ELISA) is given as “remarkable inhibitory activities”. Also, the pIC50 in data set [3] (setting [6]) was 7.00; in data set [3] (read-out: IC50, competitive inhibition of GD3 reactivity to mAb R24, ELISA, 0.1 μg GD3 per well, as printed in Example 11) it was 7.00. In addition, in data set [4], the “effect on NCV” value is reported as “less attenuation of NCV”.
As to “GLAPPDYAERFFLIS [PGD3-3, GD3-like peptide]”, the “effect on serum anti-GD3 / anti-LOSGD3 antibody level” value in data set [1] is recorded as “no suppression of either anti-LOSGD3 or anti-GD3 antibodies”. In data set [2], the “rotarod retention time / motor performance” value is “did not show any statistically significant differences”. Besides, in data set [3] (ELISA), the “inhibitory activity” value was “remarkable inhibitory activities”. The pIC50 in data set [3] (setting [6]) was 6.52.
Take “LAPPRPRSELVFLSV [PGD3-1, GD3-like peptide]”: in data set [3] (ELISA), the “inhibitory activity” value was “little or no inhibitory activity”.
As to “PHFDSLLYPCELLGC [PGD3-2, GD3-like peptide]”, the “inhibitory activity” value in data set [3] (ELISA) is on record as “little or no inhibitory activity”.
For RHAYRSMAEWGFLYS [PGD3-4], the Cmax in data set [5] (read-out: Cmax, chronic simulation, simulated, 1,000 nmol kg^−1 i.p. at 24-hourly intervals for 7 days) was 670 µM. Besides, in data set [5] (setting [7]), the “Cav, chronic simulation” value was 340 µM and the “Cmin, chronic simulation” value is 0.33 µM.
Take “SVAVPPPADDPSWRY [PGD3-6, GD3-like peptide]”: the “effect on serum anti-GD3 / anti-LOSGD3 antibody level” value in data set [1] is listed as “no suppression of either anti-LOSGD3 or anti-GD3 antibodies”. Moreover, the “rotarod retention time / motor performance” value in data set [2] is on record as “did not show any statistically significant differences”. For the same substance, in data set [3] (ELISA), the “inhibitory activity” value is “remarkable inhibitory activities”. The pIC50 in data set [3] (setting [6]) was 6.60.
Take “bPGD3-4: biotinylated product of GD3-like peptide PGD3-4 (RHAYRSMAEWGFLYS; also: biotinylated, site not given here)”: the entries for the “AUC (zero to infinite time)” value in data set [5] (setting [8]), in data set [5] (setting [9]) and in data set [5] (setting [10]) were 130.0 (43.6) nmol mL^−1 hr, 589.2 (72.9) nmol mL^−1 hr and 1425.7 (78.8) nmol mL^−1 hr, respectively. Besides, the “CL (plasma clearance)” value in data set [5] (setting [8]) is recorded as 0.82 (0.24) mL hr^−1; in data set [5] (setting [9]), 0.86 (0.11) mL hr^−1; in data set [5] (setting [10]), 0.71 (0.04) mL hr^−1. In addition, the Cmax in data set [5] (setting [8]) amounted to 70.8 µM; in data set [5] (setting [9]), 267 µM; in data set [5] (setting [10]) it was 667 µM. In addition, the “t1/2α (distribution half-life)” value in data set [5] (setting [8]) is on record as 0.48 (0.03) hr; in data set [5] (setting [9]) it was 0.42 (0.03) hr; in data set [5] (setting [10]), 0.46 (0.03) hr. Also, the “t1/2β (elimination half-life)” value is given as 2.45 (0.27) hr in data set [5] (setting [8]), 2.45 (0.33) hr in data set [5] (setting [9]) and 2.76 (0.42) hr in data set [5] (setting [10]). The tmax in data set [5] (i.p. single dose 100.0 nmol kg^−1, n = 3) was 30 min; in data set [5] (i.p. single dose 500.0 nmol kg^−1, n = 3), 30 min; in data set [5] (i.p. single dose 1000.0 nmol kg^−1, n = 3), 30 min. In addition, the “death or toxicity after peptide administration” value in data set [5] (rats, i.p. single dose of 100, 500 and 1,000 nmol kg^−1) is listed as “None of the experimental rats died or exhibited toxicity”. In addition, the linearity of pharmacokinetics entry in data set [5] (single-dose range 100-1000 nmol kg^−1) was “linear pharmacokinetics”.

In general, pIC50 refers to the IC50 on a negative log10 scale, so that one unit is a factor of ten. Broadly, the Cmax is the maximum level reached in the sampled fluid or tissue.
